Results reported in patent publication US11510992.

Key:
[1] = target: neuraminidase of influenza A/CA/07/2009 (H1N1)pdm (influenza A virus A/CA/07/2009 (H1N1)pdm); experiment: cell-based or functional assay
[2] = target: neuraminidase of influenza A/HK/1/1968 (H3N2) (influenza A virus A/HK/1/1968 (H3N2)) (UniProt Q91MA2); experiment: cell-based or functional assay
[3] = target: neuraminidase of influenza B/Malaysia/2506/2004 (Victoria) (influenza B virus B/Malaysia/2506/2004 (Victoria)); experiment: cell-based or functional assay
[4] = target: Neuraminidase of influenza A/Hawaii/70/2019 (H1N1pdm09) (influenza A virus A/Hawaii/70/2019 (H1N1pdm09)); experiment: cell-based or functional assay
[5] = target: Neuraminidase of influenza A/Hong Kong/2671/2019 (H3N2) (influenza A virus A/Hong Kong/2671/2019 (H3N2)); experiment: cell-based or functional assay
[6] = target: Neuraminidase of influenza B/Phuket/3073/2013 (Yamagata) (influenza B virus B/Phuket/3073/2013 (Yamagata)); experiment: cell-based or functional assay
[7] = target: Neuraminidase of influenza B/Washington/02/2019 (Victoria) (influenza B virus B/Washington/02/2019 (Victoria)); experiment: cell-based or functional assay
[8] = target: cynomolgus monkey FcγR1/CD64 (cynomolgus monkey)
[9] = target: cynomolgus monkey FcγR2A/CD32a (cynomolgus monkey)
[10] = target: cynomolgus monkey FcγR2B/CD32b (cynomolgus monkey)
human FcγR1/CD64 (human) = human FcγR1/CD64 (human) (UniProt P12314)
[11] = target: human FcγR2A/CD32a (R167) (human) (UniProt P12318)
mouse FcγR1/CD64 (mouse) = mouse FcγR1/CD64 (mouse) (UniProt P26151)
[12] = target: mouse FcγR2B/CD32b (mouse) (UniProt P08101)
rat FcγR2B/CD32b (rat) = rat FcγR2B/CD32b (rat) (UniProt Q63203)
rat FcγR3A/CD16a (rat) = rat FcγR3A/CD16a (rat) (UniProt Q6XPU4)
[13] = target: cynomolgus monkey FcRn (cynomolgus monkey) (UniProt Q8SPV9); experiment: pH 5.8
human FcRn (human) = human FcRn (human) (UniProt P55899); experiment: pH 5.8
mouse FcRn (mouse) [14] = target: mouse FcRn (mouse) (UniProt Q61559); experiment: pH 5.8
rat FcRn (rat) = rat FcRn (rat) (UniProt P13599); experiment: pH 5.8
[15] = target: cynomolgus monkey FcRn (cynomolgus monkey) (UniProt Q8SPV9); experiment: pH 7.4
mouse FcRn (mouse) [16] = target: mouse FcRn (mouse) (UniProt Q61559); experiment: pH 7.4

mouse FcRn (mouse), sequence (Q61559 22-297 limits assumed, form in doubt, chain 1 of 2): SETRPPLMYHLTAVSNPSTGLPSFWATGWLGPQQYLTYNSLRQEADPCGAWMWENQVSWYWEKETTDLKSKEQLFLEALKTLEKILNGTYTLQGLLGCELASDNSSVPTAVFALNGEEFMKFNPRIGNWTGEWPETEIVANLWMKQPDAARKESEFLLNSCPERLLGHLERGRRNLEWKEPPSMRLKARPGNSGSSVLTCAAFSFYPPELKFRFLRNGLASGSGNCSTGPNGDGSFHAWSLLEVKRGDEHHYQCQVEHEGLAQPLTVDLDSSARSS
mouse FcRn (mouse), sequence (chain, as listed by the source limits assumed, form in doubt, chain 2 of 2): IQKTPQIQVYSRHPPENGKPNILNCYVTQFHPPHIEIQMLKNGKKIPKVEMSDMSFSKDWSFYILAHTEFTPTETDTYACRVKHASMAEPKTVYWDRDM
rat FcRn (rat), sequence (P13599 23-298 limits assumed, form in doubt, chain 1 of 2): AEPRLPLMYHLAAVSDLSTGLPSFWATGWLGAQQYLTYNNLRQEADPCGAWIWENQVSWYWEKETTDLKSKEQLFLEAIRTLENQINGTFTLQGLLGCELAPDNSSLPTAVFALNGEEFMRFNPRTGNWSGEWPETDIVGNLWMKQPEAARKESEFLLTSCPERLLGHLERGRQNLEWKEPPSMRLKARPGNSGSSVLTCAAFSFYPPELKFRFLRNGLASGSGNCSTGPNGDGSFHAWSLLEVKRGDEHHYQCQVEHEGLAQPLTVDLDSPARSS
rat FcRn (rat), sequence (chain, as listed by the source limits assumed, form in doubt, chain 2 of 2): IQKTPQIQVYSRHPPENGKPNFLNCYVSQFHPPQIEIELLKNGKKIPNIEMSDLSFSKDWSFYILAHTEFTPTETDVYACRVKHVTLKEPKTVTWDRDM
mouse FcγR1/CD64 (mouse), sequence (P26151 25-297 limits assumed): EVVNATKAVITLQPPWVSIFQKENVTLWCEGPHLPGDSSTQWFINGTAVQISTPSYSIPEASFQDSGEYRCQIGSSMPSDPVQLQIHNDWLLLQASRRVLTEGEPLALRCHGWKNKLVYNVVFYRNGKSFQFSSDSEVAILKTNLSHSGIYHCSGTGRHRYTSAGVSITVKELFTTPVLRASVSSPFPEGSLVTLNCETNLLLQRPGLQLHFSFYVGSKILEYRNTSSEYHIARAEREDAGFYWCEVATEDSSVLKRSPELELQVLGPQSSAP
rat FcγR2B/CD32b (rat), sequence (Q63203 32-212): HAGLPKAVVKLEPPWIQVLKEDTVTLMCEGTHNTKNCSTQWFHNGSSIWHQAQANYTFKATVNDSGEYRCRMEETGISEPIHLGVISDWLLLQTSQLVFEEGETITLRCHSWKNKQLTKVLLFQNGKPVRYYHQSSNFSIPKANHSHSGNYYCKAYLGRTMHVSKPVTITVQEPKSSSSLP
human FcRn (human), sequence (P55899 24-297 limits assumed, form in doubt, chain 1 of 2): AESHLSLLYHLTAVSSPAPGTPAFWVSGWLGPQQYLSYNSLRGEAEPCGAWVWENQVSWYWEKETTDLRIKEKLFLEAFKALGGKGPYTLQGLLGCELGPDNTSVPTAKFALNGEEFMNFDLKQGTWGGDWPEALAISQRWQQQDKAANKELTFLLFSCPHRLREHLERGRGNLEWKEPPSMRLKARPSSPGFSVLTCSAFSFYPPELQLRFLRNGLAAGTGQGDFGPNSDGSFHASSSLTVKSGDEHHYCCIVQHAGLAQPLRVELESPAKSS
human FcRn (human), sequence (chain, as listed by the source limits assumed, form in doubt, chain 2 of 2): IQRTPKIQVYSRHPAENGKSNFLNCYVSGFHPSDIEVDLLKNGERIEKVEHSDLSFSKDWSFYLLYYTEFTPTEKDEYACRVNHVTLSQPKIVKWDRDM
human FcγR1/CD64 (human), sequence (P12314 16-288 limits assumed): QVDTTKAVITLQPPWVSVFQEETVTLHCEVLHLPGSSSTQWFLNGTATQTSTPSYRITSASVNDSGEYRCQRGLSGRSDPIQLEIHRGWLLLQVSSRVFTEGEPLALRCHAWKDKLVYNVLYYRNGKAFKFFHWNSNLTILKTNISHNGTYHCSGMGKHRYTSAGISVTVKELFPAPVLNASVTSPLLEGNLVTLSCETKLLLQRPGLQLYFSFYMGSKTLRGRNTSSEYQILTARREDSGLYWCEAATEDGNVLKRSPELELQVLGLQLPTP
rat FcγR3A/CD16a (rat), sequence (Q6XPU4 21-203 limits assumed): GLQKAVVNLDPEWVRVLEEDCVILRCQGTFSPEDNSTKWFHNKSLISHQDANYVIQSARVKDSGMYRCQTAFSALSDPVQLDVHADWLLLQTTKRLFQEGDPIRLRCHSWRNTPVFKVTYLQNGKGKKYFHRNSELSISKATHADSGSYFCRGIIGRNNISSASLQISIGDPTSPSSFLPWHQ
mouse FcγR2B/CD32b (mouse), sequence (P08101 30-210): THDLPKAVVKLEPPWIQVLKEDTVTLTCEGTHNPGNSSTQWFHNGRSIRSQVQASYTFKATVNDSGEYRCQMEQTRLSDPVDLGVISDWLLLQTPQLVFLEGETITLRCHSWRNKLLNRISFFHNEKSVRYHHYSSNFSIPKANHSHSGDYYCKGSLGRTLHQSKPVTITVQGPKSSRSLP
human FcγR2A/CD32a (R167) (human), sequence (P12318 36-218 H167R): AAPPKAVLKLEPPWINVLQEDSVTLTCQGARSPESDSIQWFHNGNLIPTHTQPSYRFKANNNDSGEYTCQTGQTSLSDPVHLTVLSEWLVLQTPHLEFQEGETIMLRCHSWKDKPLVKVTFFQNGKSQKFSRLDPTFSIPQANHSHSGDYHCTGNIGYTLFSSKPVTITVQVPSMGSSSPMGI

## Fc alone (SEQ ID NO: 73) (from UniProt P0DOX5 203-448)
[1]
  ADCP (fold induction), reporter cells on MDCK cells, MOI 0 (fold induction): 0.98
  ADCP (fold induction), reporter cells on infected MDCK cells, MOI 0.1 (fold induction): 1.14
  ADCP (fold induction), reporter cells on infected MDCK cells, MOI 0.3 (fold induction): 1.03
  ADCP (fold induction), reporter cells on infected MDCK cells, MOI 1 (fold induction): 0.99
  ADCP (fold induction), reporter cells on infected MDCK cells, MOI 3 (fold induction): 0.93
  ADCP (fold induction), reporter cells on infected MDCK cells, MOI 10 (fold induction): 1.05
[2]
  ADCP (fold induction), reporter cells on MDCK cells, MOI 0 (fold induction): 1.02
  ADCP (fold induction), reporter cells on infected MDCK cells, MOI 0.1 (fold induction): 1.07
  ADCP (fold induction), reporter cells on infected MDCK cells, MOI 0.3 (fold induction): 1.05
  ADCP (fold induction), reporter cells on infected MDCK cells, MOI 1 (fold induction): 1.18
  ADCP (fold induction), reporter cells on infected MDCK cells, MOI 3 (fold induction): 1.01
  ADCP (fold induction), reporter cells on infected MDCK cells, MOI 10 (fold induction): 1.06
[3]
  ADCP (fold induction), reporter cells on MDCK cells, MOI 0 (fold induction): 1.07
  ADCP (fold induction), reporter cells on infected MDCK cells, MOI 0.1 (fold induction): 0.98
  ADCP (fold induction), reporter cells on infected MDCK cells, MOI 0.3 (fold induction): 0.99
  ADCP (fold induction), reporter cells on infected MDCK cells, MOI 1 (fold induction): 1.14
  ADCP (fold induction), reporter cells on infected MDCK cells, MOI 3 (fold induction): 1.11
  ADCP (fold induction), reporter cells on infected MDCK cells, MOI 10 (fold induction): 1

## hIgG1 Fc (from UniProt P01857 84-329)
[4]
  IC50, enzyme-linked lectin assay (ELLA), fetuin substrate, live virus: > 1000 nM
[5]
  IC50, enzyme-linked lectin assay (ELLA), fetuin substrate, live virus: > 1000 nM
[6]
  IC50, enzyme-linked lectin assay (ELLA), fetuin substrate, live virus: > 1000 nM
[7]
  IC50, enzyme-linked lectin assay (ELLA), fetuin substrate, live virus: > 1000 nM

## human IgG1 isotype control antibody
[8]
  EC50: 0.37 nM
[9]
  EC50: 693 nM
[10]
  EC50: 1 nM
Human FcγR1/CD64 (human)
  EC50: 7 nM
[11]
  EC50: 144 nM
Mouse FcγR1/CD64 (mouse)
  EC50: 3 nM
[12]
  EC50: 153 nM
Rat FcγR1/CD64 (rat)
  EC50: 2 nM
Rat FcγR2A/CD32a (rat)
  EC50: 1 nM
Rat FcγR2B/CD32b (rat)
  EC50: 208 nM
Rat FcγR3A/CD16a (rat)
  EC50: 0.008 nM
[13]
  EC50: 28 nM
Human FcRn (human)
  EC50: 44 nM
Mouse FcRn (mouse) [14]
  EC50: 5 nM
Rat FcRn (rat)
  EC50: 13 nM
[15]
  EC50: 78 nM
Mouse FcRn (mouse) [16]
  EC50: 40 nM
